Patent US11857601B2, “Pharmaceutical composition for cancer treatment comprising fusion protein including IL-2 protein and CD80 protein and anticancer drug” (GI INNOVATION, INC., priority 2020, dated 2024)

Experiments:
[1] = biological target: T1, Human CTLA-4 (Homo sapiens, UniProt P16410); test: Binding ability to CTLA-4 (Octet RED 384)
T1 construct: purchased Sino Biological 11159-H08H
Protocol: In order to identify the binding affinity between the fusion protein and its ligand, the binding affinity was measured using Octet RED 384.
AR2G biosensor (Amine Reactive 2nd gen, ForteBio, Cat: 18-5092) was previously hydrated with 200 μl of distilled water in a 96-well microplate (GreinerBio-one, Cat: 655209). A ligand (CTLA-4, Human CTLA-4/CD152, His tag, Sino Biological, Cat: 11159-H08H) to be attached to the AR2G biosensor was diluted with 10 mM acetate buffer (pH 5, AR2G reagent Kit, ForteBio, Cat: 18-5095) to a concentration of 5 μg/ml. […] Activation buffer was prepared by mixing 20 mM EDC and 10 mM s-NHS (AR2G reagent Kit, ForteBio, Cat: 18-5095) in distilled water. 80 μl of each reagent was placed in a 384-well microplate (GreinerBio-one, Cat: 781209) and the program was set up.
Binding kinetics measurements were performed using the Octet RED 384 instrument (ForteBio, Pall Life Science) with agitation at 30° C. and 1,000 rpm. The binding ability for CTLA-4 was measured using the Amine Reactive 2 generation (AR2G) biosensor chip, and the binding ability for PD-L1 was measured using the Nickel charged Tris-NTA (Ni-NTA) biosensor chip. The AR2G biosensor chip was activated with a combination of 400 mM EDC and 100 mM sulfo-NHS. […]

[2] = biological target: T2, CTLA-4 expressed on effector T cells (Homo sapiens, UniProt P16410); test: CTLA-4 blockade bioassay; assay type: cell-based; details: CTLA-4 effector cells + aAPC/Raji cells, 16 hours
T2 construct: host or cells: CTLA-4 effector cells of the kit, co-cultured with aAPC/Raji cells
Protocol: An experiment was performed using a CTLA-4 blockade bioassay kit (Promega cat No. JA4005). The experiment is briefly described as follows. CTLA-4 effector cells kept in liquid nitrogen were thawed in a 37° C. constant temperature water bath for 3 minutes, and 0.8 ml of CTLA-4 effector cells were mixed well with 3.2 ml of pre-warmed assay buffer (90% RPMI+10% fetal bovine serum). Then, the mixture was added to a 96-well white cell culture plate (SPL, cat No. 30196) at 25 μl per well. Then, 25 μl of GI101 at various concentrations was added thereto. For a negative control, 25 μl of assay buffer was added thereto. Then, the 96-well white cell culture plate was covered and placed at room temperature until aAPC/Raji cells were prepared.
aAPC/Raji cells kept in liquid nitrogen were thawed in a 37° C. constant temperature water bath for 3 minutes, and 0.8 ml of aAPC/Raji cells were mixed well with 3.2 ml of pre-warmed assay buffer. Then, 25 μl of the mixture was added to the plate at per well, and reaction was allowed to proceed in a 5% CO2 incubator at 37° C. for 16 hours. […] Reaction was allowed to proceed at room temperature for 10 minutes, and then luminescence was measured with Cytation 3 (BioTek instruments, Winooski, VT, USA). […]

[3] = test system: MC38 cells; test: mGI-101 and DMXAA in MC38 allotransplanted tumor model; assay type: in vivo, C57BL/6 mice; details: day 60 after tumor injection; mGI-101 6 mg/kg i.p. BIW, DMXAA 450 μg I.T.; 5 mice per group
Protocol: In order to establish an allotransplanted tumor model, 5×10^5 of MC38 cells were subcutaneously injected into C57BL/6 mice. The tumor grafts of the mice were identified to be a size of 100-200 mm^3 about day 10 after cell inoculation, and the mice were assigned, each group including 5 mice.
The size of the MC38 solid cancer was measured three times a week during the observation period, and the major axis (maximum length, L) and minor axis (perpendicular width, W) of the tumor were measured using a caliper, and the tumor volume (TV) was calculated by substituting them into the following equation, and once the tumor size was no less than 2 cm, the mice were sacrificed. TV (mm^3)=(W^2×L)/2 [Equation 1]

[4] = test system: effector CD8+ T cells, NK cells, Treg cells; test: Effect on mouse immune cells in spleen; assay type: in vivo, C57BL/6 mice; details: 3rd to 14th days after i.v. administration (3, 6 or 12 mg/kg), vs PBS
Protocol: On days 1, 3, 5, 7, and 14 after the injection, the spleen tissues were removed from the mice of each group. Thereafter, for the spleen tissue, the numbers of effector CD8+ T cells, NK cells, and Treg cells were calculated with FACS analysis using respective antibodies, and proportions of effector CD8+ T cells and NK cells with respect to Treg cells were respectively calculated. The information on the antibodies used in each cell analysis is as follows:
Effector CD8+ T cell: PB anti-mouse CD3ε antibody (Biolegend, #155612; KT3.1.1), FITC anti-mouse CD8α antibody (BD, #553031, 53-6.7), PE/Cy7 anti-mouse CD44 antibody (Biolegend, #103030; IM7), APC anti-mouse CD122 antibody (Biolegend, #123214; TM-β1)
NK cell: PB anti-mouse CD3ε antibody (Biolegend, #155612; KT3.1.1), PE anti-mouse NK-1.1 (Biolegend, #108708; PK136)
Treg cell: FITC anti-mouse CD3 antibody (Biolegend, #100204; 17A2), PB anti-mouse CD4 antibody (Biolegend, #100531; RM4-5), PE anti-mouse CD25 antibody (Biolegend, #102008; PC61), APC anti-mouse Foxp3 antibody (Invitrogen, #FJK-16s, 17-5773-82).

T1 sequence (P16410 36-223): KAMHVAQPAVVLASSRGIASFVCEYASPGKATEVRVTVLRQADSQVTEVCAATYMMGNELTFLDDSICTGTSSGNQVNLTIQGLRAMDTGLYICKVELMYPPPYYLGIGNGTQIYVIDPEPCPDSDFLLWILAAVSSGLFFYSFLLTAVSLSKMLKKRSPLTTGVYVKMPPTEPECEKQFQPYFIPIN
T2 sequence (P16410 36-223): as above

| binding ability for CTLA-4 [1] | Substance | function of T cells (luminescence) [2] | survival rate [3] [%] | numbers of CD8+ T cells and NK cells [4] |
| --- | --- | --- | --- | --- |
| high binding ability | GI101: fusion protein: human CD80 fragment, Ig hinge, Fc domain, linker, IL-2 variant (2M) (R38A, F42A); SEQ ID NO: 9 | activats the function of T cells rather than inhibiting the same |  |  |
|  | mGI101: fusion protein: mouse CD80, Ig hinge, Fc domain, linker, IL-2 variant (2M) (R38A, F42A); SEQ ID NO: 15 |  | 20 | significant increase |
